Source: patent US20190375839A1 (JIANGSU HENGRUI MEDICINE, published 2019)
Numbering of substitutions follows the chain as printed. Names and notes keep the numbering of the source.

B1: h1701-005 (antibody, human IgG4 S228P, kappa, V domains shown)
VH: QVQLVQSGAEVKKPGASVKVSCKASGYTFTDYYMNWVRQAPGQGLEWMGDIIPNNGGSKYNQKFKDRVTMTTDTSTSTAYMELRSLRSDDTAVYYCARWGYGSSYRWFDYWGQGTLVTVSS
VL: DIQMTQSPSSLSASVGDRVTITCLASQPIGIWLAWYQQKPGKAPKLLIYAATSLADGVPSRFSGSGSGTDFTFTISSLQPEDIATYYCQQLYSSPWTFGGGTKVEIKR
notes: Humanized IgG4 (S228P)/kappa
B2: h1701-016 (antibody, human IgG4 S228P, kappa, V domains shown)
VH: B1 VH with M48I, G49A, V68A, M70L, R98T
VL: B1 VL with A43S
notes: Humanized IgG4 (S228P)/kappa
B3: h1701-018 (antibody, human IgG4 S228P, kappa, V domains shown)
VH: B1 VH with R38K, M48I, G49A, V68A, M70L, D89E, R98T
VL: B1 VL with A43S
notes: Humanized IgG4 (S228P)/kappa
B4: h1701-009NEG (antibody, human IgG4 S228P, kappa, V domains shown)
VH: B1 VH with N55E, R98T
VL: B1 VL
notes: HCDR2 point-mutation variant of h1701-009 (NNG to NEG); IgG4 (S228P)/kappa
B5: h1701-009NHG (antibody, human IgG4 S228P, kappa, V domains shown)
VH: B1 VH with N55H, R98T
VL: B1 VL
notes: HCDR2 point-mutation variant of h1701-009 (NNG to NHG); IgG4 (S228P)/kappa
B6: h1701-009NMA (antibody, human IgG4 S228P, kappa, V domains shown)
VH: B1 VH with N55M, G56A, R98T
VL: B1 VL
notes: HCDR2 point-mutation variant of h1701-009 (NNG to NMA); IgG4 (S228P)/kappa
B7: h1701-009NHA (antibody, human IgG4 S228P, kappa, V domains shown)
VH: B1 VH with N55H, G56A, R98T
VL: B1 VL
notes: HCDR2 point-mutation variant of h1701-009 (NNG to NHA); IgG4 (S228P)/kappa
B8: h1701-017 (antibody, human IgG4 S228P, kappa, V domains shown)
VH: B1 VH with R38K, M48I, G49A, V68A, M70L, D89E, R98T
VL: B1 VL
notes: Humanized IgG4 (S228P)/kappa
B9: h1701-010 (antibody, human IgG4 S228P, kappa, V domains shown)
VH: B1 VH with R98T
VL: B1 VL with A43S
notes: Humanized IgG4 (S228P)/kappa
B10: h1701-015 (antibody, human IgG4 S228P, kappa, V domains shown)
VH: B1 VH with M48I, G49A, V68A, M70L, R98T
VL: B1 VL
notes: Humanized IgG4 (S228P)/kappa
B11: h1701-009NEA (antibody, human IgG4 S228P, kappa, V domains shown)
VH: B1 VH with N55E, G56A, R98T
VL: B1 VL
notes: HCDR2 point-mutation variant of h1701-009 (NNG to NEA); IgG4 (S228P)/kappa
B12: h1701-009NVG (antibody, human IgG4 S228P, kappa, V domains shown)
VH: B1 VH with N55V, R98T
VL: B1 VL
notes: HCDR2 point-mutation variant of h1701-009 (NNG to NVG); IgG4 (S228P)/kappa
B13: h1701-011 (antibody, human IgG4 S228P, kappa, V domains shown)
VH: B1 VH with M48I, R98T
VL: B1 VL
notes: Humanized IgG4 (S228P)/kappa
B14: h1701-009NKG (antibody, human IgG4 S228P, kappa, V domains shown)
VH: B1 VH with N55K, R98T
VL: B1 VL
notes: HCDR2 point-mutation variant of h1701-009 (NNG to NKG); IgG4 (S228P)/kappa
B15: h1701-006 (antibody, human IgG4 S228P, kappa, V domains shown)
VH: B1 VH
VL: B1 VL with A43S
notes: Humanized IgG4 (S228P)/kappa
B16: h1701-008 (antibody, human IgG4 S228P, kappa, V domains shown)
VH: B1 VH with M48I
VL: B1 VL with A43S
notes: Humanized IgG4 (S228P)/kappa
B17: h1701-009NLG (antibody, human IgG4 S228P, kappa, V domains shown)
VH: B1 VH with N55L, R98T
VL: B1 VL
notes: HCDR2 point-mutation variant of h1701-009 (NNG to NLG); IgG4 (S228P)/kappa
B18: h1701-013 (antibody, human IgG4 S228P, kappa, V domains shown)
VH: B1 VH with R38K, M48I, D89E, R98T
VL: B1 VL
notes: Humanized IgG4 (S228P)/kappa
B19: h1701-009NAG (antibody, human IgG4 S228P, kappa, V domains shown)
VH: B1 VH with N55A, R98T
VL: B1 VL
notes: HCDR2 point-mutation variant of h1701-009 (NNG to NAG); IgG4 (S228P)/kappa
B20: h1701-012 (antibody, human IgG4 S228P, kappa, V domains shown)
VH: B1 VH with M48I, R98T
VL: B1 VL with A43S
notes: Humanized IgG4 (S228P)/kappa
B21: h1701-009NMG (antibody, human IgG4 S228P, kappa, V domains shown)
VH: B1 VH with N55M, R98T
VL: B1 VL
notes: HCDR2 point-mutation variant of h1701-009 (NNG to NMG); IgG4 (S228P)/kappa
B22: h1701-009NNA (antibody, human IgG4 S228P, kappa, V domains shown)
VH: B1 VH with G56A, R98T
VL: B1 VL
notes: HCDR2 point-mutation variant of h1701-009 (NNG to NNA); IgG4 (S228P)/kappa
B23: h1701-014 (antibody, human IgG4 S228P, kappa, V domains shown)
VH: B1 VH with R38K, M48I, D89E, R98T
VL: B1 VL with A43S
notes: Humanized IgG4 (S228P)/kappa
B24: h1799-005 (antibody, human IgG4 S228P, kappa)
heavy: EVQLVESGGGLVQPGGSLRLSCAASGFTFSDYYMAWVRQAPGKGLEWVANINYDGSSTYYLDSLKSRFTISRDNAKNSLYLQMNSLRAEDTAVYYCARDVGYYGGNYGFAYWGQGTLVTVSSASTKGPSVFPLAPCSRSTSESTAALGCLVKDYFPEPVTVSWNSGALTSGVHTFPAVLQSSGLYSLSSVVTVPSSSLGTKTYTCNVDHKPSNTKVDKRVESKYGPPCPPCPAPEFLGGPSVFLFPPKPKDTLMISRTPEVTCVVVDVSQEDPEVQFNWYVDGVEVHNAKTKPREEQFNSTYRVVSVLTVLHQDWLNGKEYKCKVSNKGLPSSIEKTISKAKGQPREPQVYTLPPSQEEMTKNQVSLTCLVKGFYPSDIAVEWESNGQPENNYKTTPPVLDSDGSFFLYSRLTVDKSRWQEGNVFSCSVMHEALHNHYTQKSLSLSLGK
light: DIQMTQSPSSLSASVGDRVTITCRASDNIYSYLAWYQQKPGKAPKLLIYNAKTLAEGVPSRFSGSGSGTDFTLTISSLQPEDFATYYCQQHYGSPLTFGQGTKLEIKRTVAAPSVFIFPPSDEQLKSGTASVVCLLNNFYPREAKVQWKVDNALQSGNSQESVTEQDSKDSTYSLSSTLTLSKADYEKHKVYACEVTHQGLSSPVTKSFNRGEC
notes: Humanized IgG4 (S228P)/kappa
B25: h1799-012 (antibody, human IgG4 S228P, kappa)
heavy: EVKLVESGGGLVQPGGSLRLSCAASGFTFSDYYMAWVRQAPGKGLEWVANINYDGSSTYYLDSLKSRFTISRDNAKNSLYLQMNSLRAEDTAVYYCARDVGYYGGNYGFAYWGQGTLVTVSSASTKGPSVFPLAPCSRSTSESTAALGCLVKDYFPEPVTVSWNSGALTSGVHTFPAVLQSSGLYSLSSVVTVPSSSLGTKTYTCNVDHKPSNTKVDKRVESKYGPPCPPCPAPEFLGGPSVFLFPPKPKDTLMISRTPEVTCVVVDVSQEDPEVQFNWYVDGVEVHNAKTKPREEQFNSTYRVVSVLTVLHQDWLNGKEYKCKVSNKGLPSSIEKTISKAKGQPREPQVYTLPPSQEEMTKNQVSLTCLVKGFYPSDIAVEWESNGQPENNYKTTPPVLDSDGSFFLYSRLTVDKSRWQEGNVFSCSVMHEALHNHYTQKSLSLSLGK
light: B24 light with K45Q, I48V
notes: Humanized IgG4 (S228P)/kappa
B26: h1799-019 (antibody, human IgG4 S228P, kappa, V domains shown)
VH: EVKLVESGGGLVQPGGSLRLSCAASGFTFSDYYMAWVRQAPGKGLEWVANINYDGSSTYYLDSLKSRFTISRDNAKNSLYLQMNSLKAEDTAVYYCARDVGYYGGNYGFAYWGQGTLVTVSS
VL: DIQMTQSPSSLSASVGDRVTITCRASDNIYSYLAWYQQKPGKSPQLLVYNAKTLAEGVPSRFSGSGSGTDFTLTISSLQPEDFASYYCQQHYGSPLTFGQGTKLEIKR
notes: Humanized IgG4 (S228P)/kappa
B27: h1799-015 (antibody, human IgG4 S228P, kappa, V domains shown)
VH: B26 VH
VL: B26 VL with S43A, Q45K, V48I, S85T
notes: Humanized IgG4 (S228P)/kappa
B28: h1799-018 (antibody, human IgG4 S228P, kappa, V domains shown)
VH: B26 VH
VL: B26 VL with S85T
notes: Humanized IgG4 (S228P)/kappa
B29: h1799-009 (antibody, human IgG4 S228P, kappa)
heavy: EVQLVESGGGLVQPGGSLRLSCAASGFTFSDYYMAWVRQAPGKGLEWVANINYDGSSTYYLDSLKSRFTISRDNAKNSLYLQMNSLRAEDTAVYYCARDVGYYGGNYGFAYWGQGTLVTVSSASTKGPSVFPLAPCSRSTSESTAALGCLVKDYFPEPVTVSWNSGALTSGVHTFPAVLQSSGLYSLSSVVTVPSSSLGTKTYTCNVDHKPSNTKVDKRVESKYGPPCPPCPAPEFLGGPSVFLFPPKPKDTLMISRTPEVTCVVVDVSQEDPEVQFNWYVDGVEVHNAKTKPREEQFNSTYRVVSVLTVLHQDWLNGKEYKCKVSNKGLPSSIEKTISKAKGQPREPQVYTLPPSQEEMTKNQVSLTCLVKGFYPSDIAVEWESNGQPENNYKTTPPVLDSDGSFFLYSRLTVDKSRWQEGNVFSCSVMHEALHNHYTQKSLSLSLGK
light: B24 light with A43S, K45Q, I48V, T85S
notes: Humanized IgG4 (S228P)/kappa
B30: h1799-014 (antibody, human IgG4 S228P, kappa)
heavy: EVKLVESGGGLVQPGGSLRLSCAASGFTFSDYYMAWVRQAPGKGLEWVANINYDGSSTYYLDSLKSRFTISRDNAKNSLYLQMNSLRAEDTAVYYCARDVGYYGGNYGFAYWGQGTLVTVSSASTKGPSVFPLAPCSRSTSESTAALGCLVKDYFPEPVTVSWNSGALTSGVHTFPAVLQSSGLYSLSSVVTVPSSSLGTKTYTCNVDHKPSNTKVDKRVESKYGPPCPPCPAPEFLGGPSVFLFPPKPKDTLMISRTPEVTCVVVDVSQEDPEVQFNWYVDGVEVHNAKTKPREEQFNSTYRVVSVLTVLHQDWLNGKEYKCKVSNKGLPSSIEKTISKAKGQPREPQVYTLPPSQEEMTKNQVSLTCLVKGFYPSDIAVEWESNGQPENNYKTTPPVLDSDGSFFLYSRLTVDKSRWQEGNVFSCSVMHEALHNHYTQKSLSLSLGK
light: B24 light with A43S, K45Q, I48V, T85S
notes: Humanized IgG4 (S228P)/kappa
B31: h1799-008 (antibody, human IgG4 S228P, kappa)
heavy: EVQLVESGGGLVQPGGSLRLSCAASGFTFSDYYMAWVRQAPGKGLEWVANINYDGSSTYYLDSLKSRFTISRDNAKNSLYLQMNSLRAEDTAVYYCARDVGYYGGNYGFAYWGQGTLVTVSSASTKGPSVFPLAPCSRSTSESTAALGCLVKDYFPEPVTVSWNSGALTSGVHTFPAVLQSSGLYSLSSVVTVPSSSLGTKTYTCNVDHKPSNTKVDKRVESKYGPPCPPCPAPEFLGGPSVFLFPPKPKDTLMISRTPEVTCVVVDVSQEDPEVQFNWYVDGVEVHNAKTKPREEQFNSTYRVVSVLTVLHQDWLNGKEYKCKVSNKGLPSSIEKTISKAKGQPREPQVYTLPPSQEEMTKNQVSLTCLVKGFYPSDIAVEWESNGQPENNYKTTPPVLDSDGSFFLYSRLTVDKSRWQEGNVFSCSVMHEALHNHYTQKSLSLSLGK
light: B24 light with A43S, K45Q, I48V
notes: Humanized IgG4 (S228P)/kappa
B32: h1799-007 (antibody, human IgG4 S228P, kappa)
heavy: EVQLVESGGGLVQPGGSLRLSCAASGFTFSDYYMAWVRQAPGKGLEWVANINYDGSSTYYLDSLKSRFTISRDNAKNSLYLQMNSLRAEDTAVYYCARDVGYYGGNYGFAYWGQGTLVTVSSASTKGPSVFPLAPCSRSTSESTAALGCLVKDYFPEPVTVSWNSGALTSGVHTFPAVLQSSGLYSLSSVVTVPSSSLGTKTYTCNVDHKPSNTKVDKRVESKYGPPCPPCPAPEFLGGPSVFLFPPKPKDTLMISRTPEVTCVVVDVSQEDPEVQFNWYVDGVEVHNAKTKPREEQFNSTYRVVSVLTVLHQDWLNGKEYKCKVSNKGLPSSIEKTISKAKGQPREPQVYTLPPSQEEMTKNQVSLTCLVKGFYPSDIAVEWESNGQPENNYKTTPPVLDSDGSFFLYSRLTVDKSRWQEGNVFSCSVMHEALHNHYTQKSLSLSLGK
light: B24 light with K45Q, I48V
notes: Humanized IgG4 (S228P)/kappa
B33: h1799-013 (antibody, human IgG4 S228P, kappa)
heavy: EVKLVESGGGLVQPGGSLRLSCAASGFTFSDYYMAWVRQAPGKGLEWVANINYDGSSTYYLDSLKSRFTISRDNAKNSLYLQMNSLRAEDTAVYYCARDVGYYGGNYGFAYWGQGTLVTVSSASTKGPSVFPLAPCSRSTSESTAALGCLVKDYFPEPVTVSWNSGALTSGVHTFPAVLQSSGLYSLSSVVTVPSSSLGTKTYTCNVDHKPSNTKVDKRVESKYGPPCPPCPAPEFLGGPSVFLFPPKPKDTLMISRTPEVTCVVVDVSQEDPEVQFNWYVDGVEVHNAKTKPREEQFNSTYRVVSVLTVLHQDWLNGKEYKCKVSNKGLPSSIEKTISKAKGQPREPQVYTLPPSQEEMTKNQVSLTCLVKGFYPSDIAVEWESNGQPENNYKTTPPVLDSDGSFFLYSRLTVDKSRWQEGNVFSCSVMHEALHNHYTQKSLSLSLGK
light: B24 light with A43S, K45Q, I48V
notes: Humanized IgG4 (S228P)/kappa
B34: h1799-011 (antibody, human IgG4 S228P, kappa)
heavy: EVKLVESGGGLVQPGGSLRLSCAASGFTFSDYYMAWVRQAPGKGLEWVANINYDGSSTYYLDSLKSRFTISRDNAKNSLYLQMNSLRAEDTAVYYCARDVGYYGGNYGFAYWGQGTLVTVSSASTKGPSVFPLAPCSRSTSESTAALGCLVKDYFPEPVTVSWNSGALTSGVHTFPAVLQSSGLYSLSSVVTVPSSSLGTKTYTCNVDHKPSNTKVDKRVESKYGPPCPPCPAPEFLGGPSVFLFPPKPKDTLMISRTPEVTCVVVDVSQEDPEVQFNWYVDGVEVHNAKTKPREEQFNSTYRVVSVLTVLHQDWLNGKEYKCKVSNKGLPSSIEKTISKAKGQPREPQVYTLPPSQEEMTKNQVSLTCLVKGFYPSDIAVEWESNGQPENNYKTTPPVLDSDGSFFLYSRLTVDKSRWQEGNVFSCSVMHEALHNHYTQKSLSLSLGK
light: B24 light with I48V
notes: Humanized IgG4 (S228P)/kappa
B35: h1799-017 (antibody, human IgG4 S228P, kappa, V domains shown)
VH: B26 VH
VL: B26 VL with S43A, S85T
notes: Humanized IgG4 (S228P)/kappa
B36: h1799-016 (antibody, human IgG4 S228P, kappa, V domains shown)
VH: B26 VH
VL: B26 VL with S43A, Q45K, S85T
notes: Humanized IgG4 (S228P)/kappa
B37: Ch1799 (antibody, human IgG4 S228P, kappa, V domains shown)
VH: EVKLVESEGGLVQPGSSMKLSCTASGFTFSDYYMAWVRQVPEKGLEWVANINYDGSSTYYLDSLKSRFIISRDNAKNILYLQMNSLKSDDTATYYCARDVGYYGGNYGFAYWGQGTLVTVSA
VL: DIQMTQSPASLSASVGETVTITCRASDNIYSYLAWYQQKQGKSPQLLVYNAKTLAEGVPSRFSGSGSGTQFSLKINSLQPEDFGSYYCQQHYGSPLTFGAGTKLELKR
B38: Ch1701 (antibody, human IgG4 S228P, kappa, V domains shown)
VH: EVQLQQSGPELVKPGASVKISCKASGYTFTDYYMNWVKQSHGKSLEWIADIIPNNGGSKYNQKFKDKATLTVDKSSSTAYMELRSLTSEDSAVYYCATWGYGSSYRWFDYWGQGTLVSVSA
VL: DIQMTQSPASQSASLGESVTITCLASQPIGIWLAWYQQKPGKSPQLLIYAATSLADGVPSRFSGSGSGTKFSFKISSLQAEDFVSYYCQQLYSSPWTFGGGTKLEIKR

Experiments:
[1] = target: T1, human TIM-3 full length, overexpressed on CHO-S cells (human, UniProt Q8TDQ0 22-301); experiment: cell-based ELISA on fixed CHO-S cells overexpressing human TIM-3;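 further: antibody binding at serial dilutions to PFA-fixed cells for 1 h at 37 °C, read as TMB colour signal after acid stop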
T1 construct: cells fixed with 4% PFA on plates; also called HAVCR2; Tim-3-overexpressing CHO-S cells
Procedure: (§1) The binding activity of anti-TIM-3 antibody to CHO-S cells overexpressing human TIM-3 is detected via a binding assay. […] TIM-3-overexpressing cells were immobilized on a 96-well plate. After the addition of the antibody, signal strength was used to determine the binding activity of the antibody to Tim-3-overexpressing CHO-S cells.
(§2) The cells were inoculated on a 96-well plate with 4E5/ml density, 100 μg/well, and cultured overnight. Supernatant was discarded and the plate was washed three times with PBS. 100 μl/well of 4% PFA was added into each well, and the plate was fixed at room temperature for 30 minutes. The plate was washed three times with PBS. The liquid was discarded, and 200 μl of blocking solution (5% skim milk (Guangming skim milk powder) diluted with PBS) was added to each well. The plate was incubated at 37° C. for 2.5 h. Then the blocking solution was discarded, and the plate was washed 5 times with PBST buffer (pH 7.4 PBS containing 0.05% Tween-20). 50 μl/well of various concentrations of antibodies to be tested (antibody via hybridoma purification or humanized antibody), diluted with sample buffer, were added into each well, and incubated at 37° C. for 1 h. […] The plate was washed 6 times with PBST, and 100 μl/well TMB chromogenic substrates (KPL, Cat, No., 52-00-03) was added to each well. The plate was incubated at room temperature for 5-15 min. Reaction was stopped by the addition of 50 μl of 1 M H₂SO₄ to each well.

[2] = target: T2, Extracellular domain of TIM-3 with Flag and His tag (human); experiment: Biacore SPR; antibody captured by anti-human capture antibody on CM5, TIM-3-Flag-His in mobile phase
T2 construct: also called TIM-3-Flag-His
Source text: The reaction signal was detected in real-time using Biacore instrument to obtain the association and dissociation curves. […] In the experiment, after each cycle of dissociation was finished, the biosensor chip was washed with the regenerative solution in the human capture antibody Kit.

[3] = target: T2, Extracellular domain of TIM-3 with Flag …; experiment: Biacore SPR; antibody as stationary phase, 'TIM-3-His' as mobile phase
[4] = target: T1, human TIM-3 full length, overexpressed …; experiment: cell-based ELISA on CHO-S cells overexpressing human TIM-3
Procedure: as §1, §2

Binder	EC50 [1]	Kd [2]	Kd [3]	EC50 [4]
B1	0.602 nM			
B2	0.058 nM	1.6 nM		
B3	0.087 nM			
B4			0.64 nM	0.673 nM
B5			0.64 nM	0.317 nM
B6			0.653 nM	0.629 nM
B7			0.597 nM	0.53 nM
B8	0.105 nM			
B9	0.069 nM	2.25 nM		
B10	0.265 nM			
B11			0.653 nM	0.667 nM
B12			0.581 nM	0.717 nM
B13	0.188 nM			
B14			0.472 nM	0.438 nM
B15	0.735 nM			
B16	2.42 nM			
B17			0.64 nM	0.637 nM
B18	0.199 nM			
B19			0.579 nM	0.512 nM

Binder	EC50 [1]	Kd [2]	Kd [3]	EC50 [4]
B20	0.221 nM			
B21			0.675 nM	0.603 nM
B22			0.569 nM	0.515 nM
B23	0.124 nM			
B24	0.063 nM	1.78 nM		
B25	0.158 nM			
B26	0.119 nM			
B27	0.188 nM			
B28	0.215 nM			
B29	0.076 nM			
B30	0.116 nM			
B31	0.067 nM			
B32	0.109 nM			
B33	0.139 nM			
B34	0.114 nM			
B35	0.194 nM			
B36	0.117 nM			
B37	0.08 nM	1.76 nM		
B38	0.166 nM	1.39 nM		
